From US20160251440A1 (Ablynx, published 2016)
Numbering of substitutions follows the chain as printed.

T1: human IL-23R extracellular domain Fc-fusion (human, UniProt Q5VWK5 24-355)
T1 construct: extracellular domain; bought; also called IL-23R-Fc
T1 sequence (looked up): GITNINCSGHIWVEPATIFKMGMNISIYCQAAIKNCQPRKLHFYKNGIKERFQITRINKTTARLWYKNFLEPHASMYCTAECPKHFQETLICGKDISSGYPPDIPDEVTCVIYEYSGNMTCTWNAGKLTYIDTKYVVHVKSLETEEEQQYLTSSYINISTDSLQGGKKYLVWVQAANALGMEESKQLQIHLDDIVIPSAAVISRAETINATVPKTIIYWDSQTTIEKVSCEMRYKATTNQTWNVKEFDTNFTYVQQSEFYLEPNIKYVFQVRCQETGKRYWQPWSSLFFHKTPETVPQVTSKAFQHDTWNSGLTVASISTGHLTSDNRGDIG

T2: human IL12Rβ2, cell-expressed (human, UniProt Q99665 24-862)
T2 sequence (looked up): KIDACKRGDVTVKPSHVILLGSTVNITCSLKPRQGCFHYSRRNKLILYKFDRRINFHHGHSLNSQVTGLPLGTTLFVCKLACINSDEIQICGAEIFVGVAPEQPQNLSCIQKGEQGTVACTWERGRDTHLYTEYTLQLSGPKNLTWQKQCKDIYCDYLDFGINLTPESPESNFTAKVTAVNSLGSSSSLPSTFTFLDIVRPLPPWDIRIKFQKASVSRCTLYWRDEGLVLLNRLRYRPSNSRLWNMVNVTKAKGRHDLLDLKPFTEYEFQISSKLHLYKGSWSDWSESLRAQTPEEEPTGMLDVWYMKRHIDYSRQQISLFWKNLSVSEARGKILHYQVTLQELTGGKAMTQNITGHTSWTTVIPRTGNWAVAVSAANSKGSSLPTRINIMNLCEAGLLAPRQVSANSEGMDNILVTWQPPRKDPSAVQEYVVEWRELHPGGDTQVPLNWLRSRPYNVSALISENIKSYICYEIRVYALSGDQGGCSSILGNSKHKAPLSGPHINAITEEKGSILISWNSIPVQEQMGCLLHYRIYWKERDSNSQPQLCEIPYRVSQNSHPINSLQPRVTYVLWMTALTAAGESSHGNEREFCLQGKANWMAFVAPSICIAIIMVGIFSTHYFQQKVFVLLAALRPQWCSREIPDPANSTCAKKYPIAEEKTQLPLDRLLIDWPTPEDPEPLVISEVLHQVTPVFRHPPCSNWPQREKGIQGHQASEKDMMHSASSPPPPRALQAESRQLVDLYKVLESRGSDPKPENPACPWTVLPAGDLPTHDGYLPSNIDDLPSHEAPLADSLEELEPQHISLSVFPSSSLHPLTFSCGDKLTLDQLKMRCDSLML

T3: human IL12Rβ2 extracellular domain Fc-fusion (human, UniProt Q99665 24-622)
T3 construct: extracellular domain; bought; also called IL12Rβ2-Fc; hIL-12Rβ2-Fc
T3 sequence (looked up): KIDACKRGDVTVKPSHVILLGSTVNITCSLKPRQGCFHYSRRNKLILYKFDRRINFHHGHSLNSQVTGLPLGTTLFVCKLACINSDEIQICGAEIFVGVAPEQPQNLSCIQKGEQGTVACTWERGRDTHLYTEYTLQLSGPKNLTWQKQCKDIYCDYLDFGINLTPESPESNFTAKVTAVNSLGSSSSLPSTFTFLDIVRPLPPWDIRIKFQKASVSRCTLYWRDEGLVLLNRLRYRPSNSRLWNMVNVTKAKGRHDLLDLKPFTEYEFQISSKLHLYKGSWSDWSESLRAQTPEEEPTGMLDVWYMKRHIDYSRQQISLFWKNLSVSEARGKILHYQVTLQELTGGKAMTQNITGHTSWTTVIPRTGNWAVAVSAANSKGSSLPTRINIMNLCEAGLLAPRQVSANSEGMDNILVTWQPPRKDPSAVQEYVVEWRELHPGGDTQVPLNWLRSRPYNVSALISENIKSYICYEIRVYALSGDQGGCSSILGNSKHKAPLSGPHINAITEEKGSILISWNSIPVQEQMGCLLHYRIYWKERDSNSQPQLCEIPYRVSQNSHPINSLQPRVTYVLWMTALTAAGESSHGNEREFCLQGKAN

T4: human IL-23R, cell-expressed (human, UniProt Q5VWK5 24-629)
T4 sequence (looked up): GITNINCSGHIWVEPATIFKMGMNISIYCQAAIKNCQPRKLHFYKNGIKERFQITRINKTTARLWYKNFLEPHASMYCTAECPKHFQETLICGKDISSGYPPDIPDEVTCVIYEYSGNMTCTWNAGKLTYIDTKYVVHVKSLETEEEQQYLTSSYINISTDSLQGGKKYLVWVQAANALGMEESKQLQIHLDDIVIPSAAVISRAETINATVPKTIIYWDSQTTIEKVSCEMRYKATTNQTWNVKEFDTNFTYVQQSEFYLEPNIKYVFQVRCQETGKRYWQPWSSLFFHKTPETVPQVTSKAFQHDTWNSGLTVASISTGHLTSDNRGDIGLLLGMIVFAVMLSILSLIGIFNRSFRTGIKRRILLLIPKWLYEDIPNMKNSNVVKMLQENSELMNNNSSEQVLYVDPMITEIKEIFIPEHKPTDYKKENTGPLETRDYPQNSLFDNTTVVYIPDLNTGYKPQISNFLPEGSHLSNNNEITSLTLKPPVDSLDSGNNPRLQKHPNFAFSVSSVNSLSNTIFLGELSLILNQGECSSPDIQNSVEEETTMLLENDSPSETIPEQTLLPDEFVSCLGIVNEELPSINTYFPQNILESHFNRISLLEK

B1: IL23R#20: 150H07 (VHH)
VHH: EVQLVESGGGLVQAGGSLRLSCAASGRTFSSYAMGWFRQAPGKDREFVAAISWIGESTYYADSVKGRFTISRDNAKNTVYLRMNSLKPEDTAVYYCAADLYYTAYVAAADEYDYWGQGTLVTVSS
notes: bispecifics print NAKNTVY where this entry prints NAKNIVY; also called LG150H07
B2: IL23R#19-35GS-CD4#8 (bispecific antibody)
chain: EVQLVESGGGLVQPGGSLTLSCVASGRTFSTDVMGWFRQAPGKEREFVAAHRTSGISTVYAASVKGRFTISRDNAKNTVYLGMKSLKPEDTAVYVCAAGSDASGGYDYWGQGTLVTVSSGGGGSGGGGSGGGGSGGGGSGGGGSGGGGSGGGGSEVQLVESGGGSVQPGGSLTLSCGTSGRTFNVMGWFRQAPGKEREFVAAVRWSSTGIYYTQYADSVKSRFTISRDNAKNTVYLEMNSLKPEDTAVYYCAADTYNSNPARWDGYDFRGQGTLVTVSS
notes: also called BI#42; T023200042
B3: IL12Rb2#1-35GS-CD4#8 (bispecific antibody)
chain: EVQLVESGGRLVQAGDSLRLSCAASGRTFISYRMGWFRQAPGKEREFVAALRWSSSNIDYTYYADSVKGRFSISGDYAKNTVYLQMNSLKAEDTAVYYCAASTRWGVMESDTEYTSWGQGTLVTVSSGGGGSGGGGSGGGGSGGGGSGGGGSGGGGSGGGGSEVQLVESGGGSVQPGGSLTLSCGTSGRTFNVMGWFRQAPGKEREFVAAVRWSSTGIYYTQYADSVKSRFTISRDNAKNTVYLEMNSLKPEDTAVYYCAADTYNSNPARWDGYDFRGQGTLVTVSS
notes: defined by its make-up (Nb1-Nb2)
B4: IL12Rb2#2-35GS-CD4#8 (bispecific antibody)
chain: B3 chain with I30T, A49S, S56G
notes: defined by its make-up
B5: CD4#8-35GS-IL12Rb2#1 (bispecific antibody)
chain: EVQLVESGGGSVQPGGSLTLSCGTSGRTFNVMGWFRQAPGKEREFVAAVRWSSTGIYYTQYADSVKSRFTISRDNAKNTVYLEMNSLKPEDTAVYYCAADTYNSNPARWDGYDFRGQGTLVTVSSGGGGSGGGGSGGGGSGGGGSGGGGSGGGGSGGGGSEVQLVESGGRLVQAGDSLRLSCAASGRTFISYRMGWFRQAPGKEREFVAALRWSSSNIDYTYYADSVKGRFSISGDYAKNTVYLQMNSLKAEDTAVYYCAASTRWGVMESDTEYTSWGQGTLVTVSS
notes: defined by its make-up
B6: CD4#8-35GS-IL12Rb2#2 (bispecific antibody)
chain: B5 chain with I190T, A209S, S216G
notes: defined by its make-up
B7: CD4#8-35GS-IL23R#19 (bispecific antibody)
chain: EVQLVESGGGSVQPGGSLTLSCGTSGRTFNVMGWFRQAPGKEREFVAAVRWSSTGIYYTQYADSVKSRFTISRDNAKNTVYLEMNSLKPEDTAVYYCAADTYNSNPARWDGYDFRGQGTLVTVSSGGGGSGGGGSGGGGSGGGGSGGGGSGGGGSGGGGSEVQLVESGGGLVQPGGSLTLSCVASGRTFSTDVMGWFRQAPGKEREFVAAHRTSGISTVYAASVKGRFTISRDNAKNTVYLGMKSLKPEDTAVYVCAAGSDASGGYDYWGQGTLVTVSS
notes: also called BI#45; T023200045

Experiments:
[1] = target: T1, human IL-23R extracellular domain …; experiment: SPR Biacore T100, captured IL-23R-Fc
[2] = target: T1, human IL-23R extracellular domain …; experiment: competition ELISA, coated IL-23 + IL-23R-Fc
[3] = target: T1, human IL-23R extracellular domain …; experiment: competition ELISA, coated IL-23 + 5 nM IL-23R-Fc
[4] = target: T5, human CD4, cell-expressed (human, UniProt P01730 26-458); experiment: flow cytometry on MOLM-13 cells (CD4, no IL12R or IL23R), upper right panel
T5 construct: whole, on cells

[5] = target: T1, human IL-23R extracellular domain …; experiment: competition ELISA, ratio to monovalent IL23R#19
[6] = target: T6, human IL12Rβ1, cell-expressed (human, UniProt P42701 24-662); experiment: flow cytometry on isolated CD8+ T cells of donor D863, anti-Flag detection
T6 construct: whole, on cells; in the context of the heterodimeric receptor; also called IL12Rb1

[7] = target: T5, human CD4, cell-expressed; experiment: flow cytometry on activated T cells of donor D838 (very high CD4), lower left panel
[8] = target: T2, human IL12Rβ2, cell-expressed; experiment: cell-based or functional assay
[9] = target: T3, human IL12Rβ2 extracellular domain …; experiment: competition ELISA, coated IL-12 + IL12Rβ2-Fc
[10] = target: T3, human IL12Rβ2 extracellular domain …; experiment: competition ELISA, ratio to monovalent IL12Rb2#1
[11] = target: T5, human CD4, cell-expressed; experiment: flow cytometry on MOLM-13 cells (CD4, no IL12R or IL23R), upper left panel
[12] = target: T5, human CD4, cell-expressed; experiment: flow cytometry on activated T cells of donor D838 (very high CD4, moderate IL12R), upper left panel
[13] = target: T3, human IL12Rβ2 extracellular domain …; experiment: competition ELISA, ratio to monovalent IL12Rb2#2
[14] = target: T4, human IL-23R, cell-expressed; experiment: cell-based or functional assay

Row | Binder | IC50 [2] [nM] | IC50, IFNγ release, PBMC D840 [8] [nM] | IC50, IFNγ release, T cells D839 [8] [nM] | fold ctrl, IFNγ release, PBMC D840 [8] [fold] | fold ctrl, IFNγ release, T cells D839 [8] [fold] | IC50 [9] [nM] | EC50 (read off the curve) [11] [nM] | EC50 (read off the curve) [12] [nM] | other results
1 | B1 | 16 | – | – | – | – | – | – | – | Kd [1]: 78 nM; koff [1]: 0.23 s⁻¹; kon [1]: 3e+06 M⁻¹ s⁻¹; IC50 [3]: 16 nM; binding result [4]: no binding (tested: 1E-6 M)
2 | B2 | 6.1 | – | – | – | – | – | – | – | fold ctrl [5]: 0.3 fold; binding result [6]: no binding (tested: 250 nM); EC50 (read off the curve) [4]: ~4 nM; EC50 (read off the curve) [7]: ~1 nM
3 | B3 | – | 1.1 | 0.11 | 11 | 400 | 4.8 | ~1 | ~1 | fold ctrl [10]: 0.9 fold; binding result [6]: no binding (tested: 250 nM)
4 | B4 | – | 1.6 | 0.031 | 30 | 1130 | 11 | ~1 | ~1 | fold ctrl [13]: 1.4 fold
5 | B5 | – | 1.9 | 0.78 | 8 | 74 | 10 | ~1 | ~1 | fold ctrl [10]: 0.4 fold
6 | B6 | – | 2.1 | 0.76 | 8 | 130 | 25 | ~1 | ~1 | fold ctrl [13]: 0.6 fold
7 | B7 | 6.6 | – | – | – | – | – | – | – | IC50, IL-17 release, PBMC D840 [14]: 24.2 nM; fold ctrl, IL-17 release [14]: 4.1 fold; fold ctrl [5]: 0.3 fold; EC50 (read off the curve) [4]: ~1 nM; EC50 (read off the curve) [7]: ~1 nM
